Measured values as given in the supplement of paper PMC9170038.

The sequences below were run on MS2 coat protein (assay: apparent KD of MS2 coat protein; higher = weaker reporter binding). Conditions: Eterna round: R107; input ligand: theophylline 20 uM.
How it was run: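 SNAP-549-labelled MS2 coat protein was titrated onto designed RNA switches that had been transcribed on-chip from Illumina sequencing clusters. Amounts doubled from 0.7 or 1.5 nM to 3 µM in 100 mM Tris-HCl pH 7.5, 80 mM KCl, 4 mM MgCl2, with constant ligand or without. Apparent KD is the median per design of normalised cluster binding-curve fits.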

Sequence	apparent KD of MS2 coat protein [nM]
UCGCCCGGGUCGGCCGCCACUGAGGUGAUAUGACAUGAGGAUCACCCAUGUUGUCAUGUGGAACAUAGGACCGGGACCCGGGCGA [Exclusion - Tryptophan B Attempt #2 (HarryS)]	47.6
ACACGGCAUGAUGGAUCACCUCGUGAAUCACGAGGACCGGUACGGCCGCCACUCGAAAACCGUGACCUGUACGAAAAGUGCAGGA	254
AACGUGAACGUGGUAUACCCGUGUGCCGAAGGAGCGCCCGUAAGGGCAGGUAGGUCGCGGUCGACAUGAGGAUCACCCAUGUUUG	84.2
AGCCACUCGAGUGAUCCUCACGAGUGGCUACGAGGACCGGUACGGCCGCCACUCGAAUUAACAUGAGGAUCACCCAUGUAAUCAC [Brourdmod05]	135
CAAUGCGGUUAGGAUACCAGCGACACACACUUCUCACAACACAUGAGGAUCACCCAUGUCCGCCCUUGGCAGCCUUGACUAAGGU [theeternabot_exclusion_MS2_Theo_B_39]	51.8
CACGAAAGAUCGGCCGCCACUCAUGUUUCUUACAUGAGGAUCACCCAUGUAUUUUCUUUCUUUUAGAGGACCGGGAUCGAGCGUG [#01 Same State - Tryptophan B]	78.4
CGGUUUGUGAUGGAUACCAGCAGAGAAAAUGUUUAUCCUAACAUGAGGAUCACCCAUGUGUGCCCUUGGCAGCUGUUGUGGGCUG [8.W]	72.6
GCAUCCUAGUCGGCCGCCACUGCAUCACCGGUCCUAGGUGAUCAACAUGAGGAUCACCCAUGUAGCAGGACCGGGACUAGGAUGC [(Trp1)-(MT)''-(MT)'-(Ms2)-(Trp2)_Design2]	320
AUUGUGAACCUGAUCGUAUAAUGUAGCGAUACCAGUAUAAUACAUUACCCUUGGCAGCGCGACACAUGAGGAUCACCCAUGUAAG [theeternabot_exclusion_MS2_Theo_A_10]	26.9
GUAUUCAUGACGGCCGCCACUGCAAGCCUCCUCAUGGCAGAUUGACAUGAGGAUCACCCAUGUCUCAGGACCGGGUCUGGCAUCC [theeternabot_sameState_MS2_Trp_B_43]	244
AUAUCAUAGAGUGAUACCAGACUACAUGAGGAUCACCCAUGUGACAUUUAAAUAUCAUUUGUCCCUUGGCAGCACAUUAAGUACA [JR_Nu_ExcTheophyB_Sub020]	79.8
CUAUAAGUACCGGUCCUCAGAUCCUCAUGACGAGGACCGGUACGGCCGCCACUCGAAACAUGAGGAUCACCCAUGUAAUAACAUU [Brourdmod22]	30.1
CACGAAAGAUCGGCCGCCACUAAUCGAUGUGUUCUUUCACAUGAGGAUCACCCAUGUUCUUGCGUUAGGACCGGGAUUGAGCGUG [#01 Exclusion Tryptophan B]	50.1
GAAUUAUGACGUGAUACCAGUGGUCAAUACUGGGAACUUAACAUGAGGAUCACCCAUGUCCACCCUUGGCAGCACGCUGACAAUC [theeternabot_exclusion_MS2_Theo_B_14]	133
ACGAUAGGACAUGAGGAUCACCCAUGUGAUACCAGCCUGGAAACAGGCCCUUGGCAGCACAAAUACUCCAGAAACCUAUCGAAUA [TheoAX2 #MicroSwitchBubble]	294
ACCGCAUCCGUAUAGGAUGCGGGCCAUGAAGGAGCGUGGGAAACCACAGGUAGGUCGCAUGGGUUACAUGAGGAUCACCCAUGUG [Jaws]	517
CCUCGAUUUUGAUACCGAUAUGUCUUUGAUACCAGCGCCAUAGUACGCCCUUGGCAGCAAGAAACAUGAGGAUCACCCAUGUUAA [theeternabot_exclusion_MS2_Theo_A_36]	26.4
UUUGGCGGCGAUCUGGGUUUACCAGAUCGGCGAGGACCGGUACGGCCGCCACUCGUGUUUCUUUGACAUGAGGAUCACCCAUGUA [whbob_SS_trypto A_f3]	74.6

Same assay, conditions: Eterna round: R107; input ligand: theophylline 2 mM

Sequence	apparent KD of MS2 coat protein [nM]
AAAGUUGAUGAGUUGCGUUUGUGUUCCGAAGGAGCGAGAAUUAUCUCAGGUAGGUCGCGGAACAUGAGGAUCACCCAUGUAUAAA [XArg-A 19 NuV1&2 original #dotplot2>1]	41.6
GGAGGUACCCGAAGGAGCGACAUGAGGAUCACCCAUGUCUCCCGUUAUGGGAGUUCCUUAGGUCAGGUAGGUCGCGGGUACCUCC [#1 Exclusion - Arginine B Attempt #1 (Inspired by Omei)]	128
GAGAGUGUGUGCGAAAGCACAGAUCUGGAAGGAGCGUAGAAAGAUACAGGUAGGUCGCCGGGACAUGAGGAUCACCCAUGUGUAU [ArgiA-ms2@63]	35.8
GGUGGCUGGAUCGAUACCAGCCACCACCGAUAGACCACAUGAGGAUCACCCAUGUUGGGUGGCCCUUGGCAGCGGUCCAGCUGCC [#1 Same State - Theophylline B Attempt #5 (HarryS)]	1240
UUAUGCAGGUCGGCCGCCACUACACACAUGAGGAUCACCCAUGUAGUUACUGGGUGAAGUGGCAGUAGGACCGGGACCUGCACAU [Brourdmod13]	850
UCUAACAUGAGGAUCACCCAUGUACCGUCCCGAGGACCGGUACGGCCGCCACUCGUCUUGCUAAAACUGAAGUGAUCACAAGCCU [theeternabot_sameState_MS2_Trp_A_2]	24.6
AUAAUUGGGUUAAUUAGUUUUAGGUCCAGUCGAGGACCGGUACGGCCGCCACUCGUUCCGAGAUACAUGAGGAUCACCCAUGUUA [JR_ExcTryptoA_Sub015]	31
CCCUGGGUGGGAAGGAGCGCAUAGUGAACAUGAGGAUCACCCAUGUGCAGACGUGAGUCAUUGCAGGUAGGUCGCCCACCCAGGG [SS-ArgB22]	30.2
GGAUGAAACUGAAGGAGCGAGAUCACAAGAUUGGGUCUAACAUGAGGAUCACCCAUGUAAUCUCAGGUAGGUCGCAGUGUCCCUU [Exclusion Arginine B GF 12]	43.5
GCUUGGGUGGCACAGCACUGGCAGUGCGAUACCAGCACGGUAACGUGCCCUUGGCAGCGCACAUGAGGAUCACCCAUGUGGUGCG [#1 Exclusion - Theophylline A Attempt #26 (HarryS)]	275
GAACAAGGUUUCUUGUUCGGUCGCUGAGAAGGAGCGCGGUAACCCGCAGGUAGGUCGCUCAGAAAUACAUGAGGAUCACCCAUGU [Anaa]	21.7
GCAAAGUGAUCGGCCGCCACUGCAAUGCUUAAUGGAGGUCCACAUGAGGAUCACCCAUGUCUUCCCAGGACCGGGAUCUCGAGUU [theeternabot_sameState_MS2_Trp_B_3]	72.6
AUACAUGAGGAUCACCCAUGUAUAGUUGAAGGAGCGACCAGAGGGUCAGGUAGGUCGCAGCACAUGAGGAUCACCCAUGUAUUUU [#1 Exclusion - Arginine A Attempt #14 (Inspired by Pi)]	35.1
UCGCCCGGGUCGGCCGCCACUGAGGUGAUAUGACAUGAGGAUCACCCAUGUUGUCAUGUGGAACAUAGGACCGGGACCCGGGCGA [Exclusion - Tryptophan B Attempt #2 (HarryS)]	19.6
ACACGGCAUGAUGGAUCACCUCGUGAAUCACGAGGACCGGUACGGCCGCCACUCGAAAACCGUGACCUGUACGAAAAGUGCAGGA	758
AACGUGAACGUGGUAUACCCGUGUGCCGAAGGAGCGCCCGUAAGGGCAGGUAGGUCGCGGUCGACAUGAGGAUCACCCAUGUUUG	106
